Laboratory results published in PMC12903456, “DoMYB75 coordinately regulates polysaccharide and anthocyanin biosynthesis in Dendrobium officinale”.

Molecular target: MBP-DoMYB75 (Dendrobium officinale, UniProt A0A2I0X1N0 1-290)
Experiment: EMSA; competed by unlabeled probe; LightShift Chemiluminescent EMSA Kit (Thermo Fisher) per manufacturer; buffer, salt, pH and temperature not stated
Conditions: protein: recombinant; tags: MBP; label: biotin; blunt

MBP-DoMYB75, sequence (A0A2I0X1N0 entry or part of it): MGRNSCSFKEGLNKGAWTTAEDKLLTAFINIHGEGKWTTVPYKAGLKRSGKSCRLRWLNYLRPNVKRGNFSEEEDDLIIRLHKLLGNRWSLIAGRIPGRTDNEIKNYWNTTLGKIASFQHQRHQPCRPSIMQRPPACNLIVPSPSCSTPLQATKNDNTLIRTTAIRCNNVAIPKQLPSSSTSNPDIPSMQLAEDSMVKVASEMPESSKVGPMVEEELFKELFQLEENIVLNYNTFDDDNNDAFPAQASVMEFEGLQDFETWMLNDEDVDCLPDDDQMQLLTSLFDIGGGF

B1: ProCSLA9 probe (dsDNA)
DNA 1: TAAGAAACTTTGATAACTATTAGATGACCAAATTAATTCAATCATACCGTAAATAATTC
DNA 2: GAATTATTTACGGTATGATTGAATTAATTTGGTCATCTAATAGTTATCAAAGTTTCTTA
Does B1 bind?
Result: binds

B2: ProCSLA3 probe (dsDNA)
DNA 1: TCACATTTATCACGTTTGAGTTCGATACCAACTTTTTTTTTTTTTTTTTGAGC
DNA 2: GCTCAAAAAAAAAAAAAAAAAGTTGGTATCGAACTCAAACGTGATAAATGTGA
Does B2 bind?
Result: binds

B3: ProCSLA12 probe (dsDNA)
DNA 1: CCCTAAAGGTTGGAGTTGGTCACTCAACCTAACCTTAAATAATGATTCATGTTGTATTC
DNA 2: GAATACAACATGAATCATTATTTAAGGTTAGGTTGAGTGACCAACTCCAACCTTTAGGG
Does B3 bind?
Result: binds
